Measurements as given in publication PMC3699403.

What was measured:
[1] = target: STM3605t (STM3605 residues 5-107, SeMet-labeled and reductively methylated) (Salmonella enterica serovar Typhimurium LT2); experiment: crystal structure
[2] = target: STM3605f, full-length Se-labeled non-methylated variant (Salmonella enterica serovar Typhimurium LT2); experiment: crystal structure

Substance	stoichiometry N [1]	stoichiometry N [2]
STM3605t (STM3605 residues 5-107, SeMet-labeled and reductively methylated) (domain or fragment)	2	
STM3605f, full-length Se-labeled non-methylated variant (natural protein)		2
